{
  "source": "paper PMC4110039",
  "key": {"[1]": {"molecular_target": "HIV-1 JR2 F673L mutant Env (trimer of gp120-gp41 heterodimers) on pseudotyped virus (HIV-1 (isolate JR2))"}, "[2]": {"molecular_target": "HIV-1 JR2 wild type Env (trimer of gp120-gp41 heterodimers) on pseudotyped virus (HIV-1 (isolate JR2))"}},
  "data": [
    {"substance": "C34 peptide", "values": [
      {"measurement": "IC50 of neutralization of pseudotyped virus (single cycle entry assay, TZM-bl cells); C34 acts on the NHR of gp41", "setting": "[1]", "result": 0.9, "unit": "mg/L"},
      {"measurement": "IC50 of neutralization of pseudotyped virus (single cycle entry assay, TZM-bl cells); C34 acts on the NHR of gp41", "setting": "[2]", "result": 1.2, "unit": "mg/L"}
    ]}
  ]
}
